Results reported in patent publication US20160031977A1 (BETH ISRAEL DEACONESS MEDICAL CENTER, published 2016).
Square brackets hold non-standard residues; d marks the D form. Ends that are not written are not given here. pT = C[C@@H](OP(=O)(O)O)[C@H](N)C(=O)O

T1: pT231-tau peptide locked in trans (pT231-Ala)
T1 construct: also called trans pT231-tau peptide
T1 peptide: KVAVVR[pT]APKSPS


Target: T1, pT231-tau peptide locked in trans …
Assay: ELISA, hybridoma culture supernatant on peptide
Experimental: To develop cis and trans pT231-tau mouse mAbs, 74% cis pT231-Pip tau peptide as described previously in Nakamura et al., Cell 149: 232-244, 2012 was used to immunize mice. The procedure produced 480 hybridoma clones that were then characterized. […] The nucleic acid and protein sequences including the CDRs of the mAb heavy chain and light chain are shown below. […] The DNA sequences of the heavy and light chains of the mAbs were determined using 5′ RACE RT-PCR techniques, as described in Bradbury et al., Neurobiol Aging 16:465-475, 1995. […] Predicted protein sequences are highly conserved in Framework regions, with clear differences in complementary determining region (CDR) 1-3 (FIGS. 8 and 9).

Row | Binder | binding result
1 | Cis mAb-#113 (antibody, V domains shown, Mouse monoclonal antibody from a hybridoma, screened as culture supernatant; also called cis pT231-tau mouse mAb) VH: QVQLQQPGAELVKPGASVKMSCKASGYTFTSYWIHWVKQRPGQGLEWIGVIDPSDSYTRYNQKFKGKATLTVDTSSSTAYMQLSSLTSEDSAVYYCTTWEVDYWGQGTTLTVSS VL: DVVMTQTPLSLPVSLGDQASISCRSSQSLVHSDGNTYLHWYLQKPGQSPKLLIYKVSNRFSGVPDRFSGSGSGTDFTLKISRLEAEDLGVYFCSQSTHVPWTFGGGTKLEIKR | no binding
2 | Cis mAb-#74 (antibody, V domains shown, Mouse monoclonal antibody from a hybridoma, screened as culture supernatant; also called cis hybridoma clone #74; cis pT231-tau mouse mAb) VH: DVQLQESGPGLVKPSQSLSLTCSVTGYSITSGYYWNWIRQFPGNKLEWMGYISYDGSNNYNPSLKNRISITRDTSKNQFFLKLNSVTTEDTATYYCAGLRRDAYWGQGTLVTVSA VL: DIQMTQTTSSLSASLGDRVTISCRASQDISNYLNWYQQKPDGTVKLLIYYTSRLHSGVPSRFSGSGSGTDYSLTISNLEQEDIATYFCQQGNTLPWTFGGGTKLEIKR | no binding
